Results taken from patent US20120231006A1 (Amgen, published 2012).

B1: mAb 5D7.2 (antibody, human IgG2, lambda, V domains shown)
VH: QVQLVQSGAEVKKPGASVKVSCKASGYTFTDYYMNWVRQAPGQGLEWMGWINPNSGGTKYAQKFQGRVTMTRDTSIRTAYMELSRLRSDDTAVYYCAREYGGNSDWFDPWGQGTLVTVSS
VL: QSVLTQPPSVSGAPGQRVTISCTGSSSNIGAGYDVHWYQQSPGTAPKLLIYGNSNRPSGVPDRFSGSKSGTSASLAITGLQAEDEADYYCQSYDNRLSDSVVIGGGTKLTVQG
notes: fully human IgG2 lambda, Campaign 2, recombinant
B2: mAb 5H3.1 (antibody, human IgG2, lambda, V domains shown)
VH: QVQLVQSGAEVKKPGASVKVSCKASGYTFTDYYMNWVRQAPGQGLEWMGWINPNSGGTKYAQKFQGRVTMTRDTSIRTAYMELSRLRSDDTAVYYCAREYGGNSDWFDPWGQGTLVTVSS
VL: QSVLTQPPSVSGAPGQRVTISCTGSSSNIGAGYDVHWYQQLPGTAPKLLIYGNSNRPSGVPDRFSGSKSGTSASLAITGLQAEDEADYYCQSYDNRLSDSVVIGGGTKLAVQG
notes: as for B1
B3: mAb 5B5.1 (antibody, human IgG2, lambda, V domains shown)
VH: QVQLVQSGAEVKKPGASVKVSCKASGYTFTDYYINWVRQAPGQGLEWMGWINPNSGGTDYAQKFQGRVTMTRDTSIRTAYMELNRLTSDDTAVYYCAREYGGYEDWFDPWGQGTLVTVSS
VL: QSVLTQPPSVSGAPGQRVTISCTGSNSNIGAGFDVHWYQQLPGTVPKLLIYGNNNRPSGVPDRFSGSKSGTSASLAITGLQAEDEADYYCQSYDSRLTVFGGGTKLTVLG
notes: fully human IgG2 lambda, Campaign 2, recombinant; same chains as 5B5.2

Tests used:
human Orai1 [1] = molecular target: T1, human Orai1 (human, UniProt Q96D31 1-301); experiment: FACS Kd, AM1-CHO/hOrai1/hSTIM1-YFP cells
T1 construct: on AM1-CHO/hOrai1/hSTIM1-YFP, AM1/hOrai1, HEK-293 transfectants, endogenous on Jurkat and blood cells; in Westerns from cell lysates; also called hOrai1; CRACM1
Method: The equilibrium plates were centrifuged at 500 g for 3 minutes and cell pellets were washed twice with 200 μL of ice cold FACS buffer (1×D-PBS+2% FBS). The cells were then incubated with a secondary antibody, goat anti-human Fc Cy5 at 5 μg/mL and 100 μL per well for 1 h on ice in the dark. Following the incubation, the cells were washed twice with 200 μL of ice-cold FACS buffer before flow cytometry analysis. The GeoMean values gated on live cell population measure the bound [Ab]. The inverse of the GeoMean values that reflects theoretical free [Ag] in the equilibrium solution was then calculated. The inverse values of the GeoMean read were used in KinExA® Pro software for analysis and Kd calculation for each antibody. The free [Ag] measure was plotted against the starting concentration of titrating component and from these plots at two different cell concentrations the Kd was obtained from curve fitting using n-curve analysis in KinExA Pro software. […] Shown in Table 14 (below) are the equilibrium dissociation constant (Kd) values of invented mAbs determined by FACS Kd measurement.

human Orai1 [2] = molecular target: T1, human Orai1; experiment: cell-based or functional assay

T1 sequence (Q96D31 whole entry): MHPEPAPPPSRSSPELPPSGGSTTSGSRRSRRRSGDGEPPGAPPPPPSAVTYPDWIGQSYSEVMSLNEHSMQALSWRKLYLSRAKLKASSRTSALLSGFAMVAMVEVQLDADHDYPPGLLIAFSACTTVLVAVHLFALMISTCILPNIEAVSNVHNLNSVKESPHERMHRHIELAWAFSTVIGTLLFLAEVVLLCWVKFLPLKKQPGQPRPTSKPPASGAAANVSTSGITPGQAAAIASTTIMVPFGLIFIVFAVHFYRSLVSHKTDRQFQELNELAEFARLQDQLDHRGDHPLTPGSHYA

Row | Binder | Kd (human Orai1 [1]) [nM] | IC50 IFN-γ, whole blood Donor A, recombinant mAb (human Orai1 [2]) [nM] | IC50 IFN-γ, whole blood Donor B, recombinant mAb (human Orai1 [2]) [nM] | IC50 IL-2, whole blood Donor A, recombinant mAb (human Orai1 [2]) [nM] | IC50 IL-2, whole blood Donor B, recombinant mAb (human Orai1 [2]) [nM]
1 | B1 | 0.483 | 2.67 | 1.17 | 3.17 | 0.8
2 | B2 | 0.649 | 0.1 | 2.55 | 0.87 | 1.59
3 | B3 | 0.735 | 0.8 | 42.9 | 1.34 | 1.14
